Reference: patent publication US20150299285A1
Like-named read-outs stand apart in the source and are kept apart here.

What was measured:
[1] = target: insulin receptor subtype A (human) (UniProt P06213); assay: IR-A Binding, competition with 125I-insulin
[2] = target: insulin receptor subtype B (human) (UniProt P06213); assay: cell-based or functional assay
[3] = target: insulin receptor subtype A (human) (UniProt P06213); assay: cell-based or functional assay
[4] = target: insulin receptor subtype B (human) (UniProt P06213); assay: cell-based or functional assay; remark: listed apart in the source
[5] = target: insulin receptor subtype A (human) (UniProt P06213); assay: cell-based or functional assay; remark: listed apart in the source

IC50 [1]: 18.8 nM | EC50, Receptor Phosphorylation [2]: 16.6 nM | EC50, phosphorylation (FIG. 18B) [2]: 32.4 nM | IC50 (so named in p-1063), Phosphorylation at Insulin Receptor Subtype B [2]: 19.7 nM | EC50, IR-A Phosphorylation [3]: 29.2 nM | EC50, Receptor Phosphorylation [3]: 10 nM | EC50, phosphorylation (FIG. 18A) [3]: 2.24 nM | IC50 (so named in p-1063), Phosphorylation at Insulin Receptor Subtype A [3]: 146 nM | EC50, Receptor Phosphorylation [4]: 32.2 nM | EC50, Receptor Phosphorylation [5]: 6.48 nM
Substance: native IGF-1 (from UniProt P05019 49-118) (ligand)
